The assay has as its target T1, IL-18R on HEK-Blue IL18R reporter cells (InvivoGen, #hkb-hmi118) (UniProt Q13478 19-541; O95256 20-599, limits assumed).
T1 sequence (looked up) 1: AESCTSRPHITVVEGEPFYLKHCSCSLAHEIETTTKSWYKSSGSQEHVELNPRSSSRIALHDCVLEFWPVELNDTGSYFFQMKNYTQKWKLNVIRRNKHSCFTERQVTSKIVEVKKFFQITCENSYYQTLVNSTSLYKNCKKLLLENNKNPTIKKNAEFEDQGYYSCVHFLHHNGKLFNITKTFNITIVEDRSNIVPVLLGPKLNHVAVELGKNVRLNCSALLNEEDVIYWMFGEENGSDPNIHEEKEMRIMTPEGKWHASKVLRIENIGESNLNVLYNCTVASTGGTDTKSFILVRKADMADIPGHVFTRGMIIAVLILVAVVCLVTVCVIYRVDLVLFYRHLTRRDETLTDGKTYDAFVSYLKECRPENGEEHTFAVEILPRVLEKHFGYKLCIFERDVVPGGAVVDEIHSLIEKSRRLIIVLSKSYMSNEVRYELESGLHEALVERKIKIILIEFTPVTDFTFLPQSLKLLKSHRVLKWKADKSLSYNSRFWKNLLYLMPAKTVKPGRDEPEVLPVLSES
T1 sequence (looked up) 2: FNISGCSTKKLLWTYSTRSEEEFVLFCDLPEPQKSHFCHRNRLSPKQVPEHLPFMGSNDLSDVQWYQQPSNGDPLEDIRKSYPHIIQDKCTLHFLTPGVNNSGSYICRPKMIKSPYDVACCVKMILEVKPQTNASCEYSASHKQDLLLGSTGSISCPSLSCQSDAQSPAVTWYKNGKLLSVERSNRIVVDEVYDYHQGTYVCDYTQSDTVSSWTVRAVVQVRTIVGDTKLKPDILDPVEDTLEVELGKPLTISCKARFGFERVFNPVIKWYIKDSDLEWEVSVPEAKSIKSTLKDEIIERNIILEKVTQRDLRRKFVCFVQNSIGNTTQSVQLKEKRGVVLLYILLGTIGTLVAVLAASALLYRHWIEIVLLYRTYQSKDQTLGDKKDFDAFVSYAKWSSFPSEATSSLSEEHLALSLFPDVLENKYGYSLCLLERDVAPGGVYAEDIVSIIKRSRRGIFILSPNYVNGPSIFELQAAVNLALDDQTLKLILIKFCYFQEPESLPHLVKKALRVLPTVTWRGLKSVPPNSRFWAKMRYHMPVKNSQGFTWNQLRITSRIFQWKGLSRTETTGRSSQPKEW
The experiment in a line: cell-based or functional assay.

Positions count from the first letter of the chain named. Names and notes keep the numbering of the source. Values joined by “and” are separate entries in the source; they are usually repeats but may differ in a detail not shown here. Equal entries are not always repeated.

B1: IL-18 polypeptide of SEQ ID NO: 34 (E06K, K53A, S55A) (ligand)
chain: YFGKLKSKLSVIRNLNDQVLFIDQGNRPLFEDMTDSDCRDNAPRTIFIISMYADAQPRGMAVTISVKCEKISTLSCENKIISFKEMNPPDNIKDTKSDIIFFQRSVPGHDNKMQFESSSYEGYFLACEKERDLFKLILKKEDELGDRSIMFTVQNED
Regarding B1, the “EC50, HEK-Blue IL18R reporter assay” value is 272 pM.

B2: IL-18 polypeptide C162 (K8E, V11I, C38A, C76A, Q103R, C127A) (ligand)
chain: B1 chain with K6E, K8E, V11I, C38A, A53K, A55S, C76A, Q103R, C127A
Regarding B2, the “EC50, HEK-Blue IL18R reporter assay” value is 2.3 pM.

B3: IL-18 polypeptide C143 (V11I, C38A, K53A, C76A, C127A) (ligand)
chain: B1 chain with K6E, V11I, C38A, A55S, C76A, C127A
On to B3, for which the “EC50, HEK-Blue IL18R reporter assay” value stood at 0.98 pM.

B4: IL-18 polypeptide C151 (V11I, D35A, C38A, K53A, C76A, C127A) (ligand)
chain: B1 chain with K6E, V11I, D35A, C38A, A55S, C76A, C127A
B4: the “EC50, HEK-Blue IL18R reporter assay” value amounted to 13.1 pM.

B5: IL-18 polypeptide C165 (V11I, C38A, S55R, C76A, C127A) (ligand)
chain: B1 chain with K6E, V11I, C38A, A53K, A55R, C76A, C127A
On to B5, for which the “EC50, HEK-Blue IL18R reporter assay” value amounted to 1.91 pM.

B6: IL-18 polypeptide C157 (V11I, C38A, K53A, C76A, C127A, D132A) (ligand)
chain: B1 chain with K6E, V11I, C38A, A55S, C76A, C127A, D132A
Regarding B6, the “EC50, HEK-Blue IL18R reporter assay” value was 1.95 pM.

B7: IL-18 polypeptide of SEQ ID NO: 50 (E06K, K53A, T63A) (ligand)
chain: B1 chain with A55S, T63A
As to B7, the “EC50, HEK-Blue IL18R reporter assay” value was 1.77 pM.

B8: IL-18 polypeptide of SEQ ID NO: 59 (E6K, C38A, K53A) (ligand)
chain: B1 chain with C38A, A55S
Take B8: the “EC50, HEK-Blue IL18R reporter assay” value is 0.268 pM.

B9: IL-18 polypeptide C166 (V11I, C38A, S55T, C76A, C127A) (ligand)
chain: B1 chain with K6E, V11I, C38A, A53K, A55T, C76A, C127A
B9: the “EC50, HEK-Blue IL18R reporter assay” value is 4.73 pM.

B10: IL-18 polypeptide C153 (V11I, D37A, C38A, K53A, C76A, C127A) (ligand)
chain: B1 chain with K6E, V11I, D37A, C38A, A55S, C76A, C127A
As for B10, the “EC50, HEK-Blue IL18R reporter assay” value turned out to be 14.1 pM.

B11: IL-18 polypeptide C156 (V11I, C38A, N41A, K53A, C76A, C127A) (ligand)
chain: B1 chain with K6E, V11I, C38A, N41A, A55S, C76A, C127A
Turning to B11, the “EC50, HEK-Blue IL18R reporter assay” value is 11.7 pM.

B12: IL-18 polypeptide of SEQ ID NO: 54 (E06K, K53A, C38S, C68S, C76S, C127S, K70C) (ligand)
chain: B1 chain with C38S, A55S, C68S, K70C, C76S, C127S
As to B12, the “EC50, HEK-Blue IL18R reporter assay” value is 9.12 pM.

B13: IL-18 polypeptide C160 (V11I, C38A, K53A, C76A, D110A, C127A) (ligand)
chain: B1 chain with K6E, V11I, C38A, A55S, C76A, D110A, C127A
Regarding B13, the “EC50, HEK-Blue IL18R reporter assay” value turned out to be 2.02 pM.

B14: IL-18 polypeptide C167 (V11I, C38A, C76A, S105I, C127A) (ligand)
chain: B1 chain with K6E, V11I, C38A, A53K, A55S, C76A, S105I, C127A
As for B14, the “EC50, HEK-Blue IL18R reporter assay” value was found to be 5.37 pM.

B15: IL-18 polypeptide of SEQ ID NO: 42 (E06K, K53A, S55A, T63A) (ligand)
chain: B1 chain with T63A
For B15, the “EC50, HEK-Blue IL18R reporter assay” value amounted to 0.79 pM.

B16: IL-18 polypeptide C176 (E6K, V11I, C38A, I49M, K53A, T63A, C76A, C127A) (ligand)
chain: B1 chain with V11I, C38A, I49M, A55S, T63A, C76A, C127A
On to B16, for which the “EC50, HEK-Blue IL18R reporter assay” value was 0.07 pM.

B17: IL-18 polypeptide C154 (V11I, E31A, D37A, C38A, K53A, C76A, C127A) (ligand)
chain: B1 chain with K6E, V11I, E31A, D37A, C38A, A55S, C76A, C127A
In the case of B17, the “EC50, HEK-Blue IL18R reporter assay” value was found to be 11.9 pM.

B18: IL-18 polypeptide C159 (V11I, C38A, K53A, C76A, H109A, C127A) (ligand)
chain: B1 chain with K6E, V11I, C38A, A55S, C76A, H109A, C127A
In the case of B18, the “EC50, HEK-Blue IL18R reporter assay” value was 19.5 pM.

B19: IL-18 polypeptide C161 (K8R, V11I, C38A, C76A, Q103E, C127A) (ligand)
chain: B1 chain with K6E, K8R, V11I, C38A, A53K, A55S, C76A, Q103E, C127A
B19: the “EC50, HEK-Blue IL18R reporter assay” value worked out at 2.01 pM.

B20: IL-18 polypeptide of SEQ ID NO: 57 (E6K, C38S, K53A) (ligand)
chain: B1 chain with C38S, A55S
For the molecule B20, the “EC50, HEK-Blue IL18R reporter assay” value is 0.86 pM and 0.53 pM.

B21: IL-18 polypeptide C144 (V11I, C38A, K53A, T63A, C76A, C127A) (ligand)
chain: B1 chain with K6E, V11I, C38A, A55S, T63A, C76A, C127A
As to B21, the “EC50, HEK-Blue IL18R reporter assay” value amounted to 0.17 pM.

B22: IL-18 polypeptide C148 (F2A, V11I, C38A, K53A, C76A, C127A) (ligand)
chain: B1 chain with F2A, K6E, V11I, C38A, A55S, C76A, C127A
On to B22, for which the “EC50, HEK-Blue IL18R reporter assay” value was determined as 7.28 pM.

B23: IL-18 polypeptide C146 (SEQ ID NO: 68; V11I, C38A, M51G, K53A, C76A, C127A) (ligand)
chain: B1 chain with K6E, V11I, C38A, M51G, A55S, C76A, C127A
As for B23, the “EC50, HEK-Blue IL18R reporter assay” value was determined as 0.8 pM.

B24: IL-18 polypeptide of SEQ ID NO: 56 (E6K, K53A, C38S, C76S, C127S) (ligand)
chain: B1 chain with C38S, A55S, C76S, C127S
Turning to B24, the “EC50, HEK-Blue IL18R reporter assay” value turned out to be 3.73 pM.

B25: IL-18 polypeptide C168 (V11I, C38A, C76A, S105K, C127A) (ligand)
chain: B1 chain with K6E, V11I, C38A, A53K, A55S, C76A, S105K, C127A
Consider B25, for which the “EC50, HEK-Blue IL18R reporter assay” value was found to be 7.73 pM.

B26: IL-18 polypeptide C164 (V11I, C38A, S55H, C76A, C127A) (ligand)
chain: B1 chain with K6E, V11I, C38A, A53K, A55H, C76A, C127A
For B26, the “EC50, HEK-Blue IL18R reporter assay” value is 3.14 pM.

B27: IL-18 polypeptide C155 (V11I, C38A, D40A, K53A, C76A, C127A) (ligand)
chain: B1 chain with K6E, V11I, C38A, D40A, A55S, C76A, C127A
Consider B27, for which the “EC50, HEK-Blue IL18R reporter assay” value was 0.52 pM.

B28: IL-18 polypeptide C149 (V11I, E31A, C38A, K53A, C76A, C127A) (ligand)
chain: B1 chain with K6E, V11I, E31A, C38A, A55S, C76A, C127A
As to B28, the “EC50, HEK-Blue IL18R reporter assay” value turned out to be 6.6 pM.

B29: IL-18 polypeptide C177 (E6K, V11I, C38A, I49R, K53A, T63A, C76A, C127A) (ligand)
chain: B1 chain with V11I, C38A, I49R, A55S, T63A, C76A, C127A
On to B29, for which the “EC50, HEK-Blue IL18R reporter assay” value was determined as 0.04 pM.

B30: IL-18 polypeptide of SEQ ID NO: 60 (E6K, C38Q, K53A) (ligand)
chain: B1 chain with C38Q, A55S
B30: the “EC50, HEK-Blue IL18R reporter assay” value is 0.203 pM.

B31: IL-18 polypeptide C163 (V11I, C38A, C76A, Q103K, C127A) (ligand)
chain: B1 chain with K6E, V11I, C38A, A53K, A55S, C76A, Q103K, C127A
As to B31, the “EC50, HEK-Blue IL18R reporter assay” value came to 1.5 pM.

B32: IL-18 polypeptide C152 (V11I, S36A, C38A, K53A, C76A, C127A) (ligand)
chain: B1 chain with K6E, V11I, S36A, C38A, A55S, C76A, C127A
With B32, the “EC50, HEK-Blue IL18R reporter assay” value worked out at 0.25 pM.

B33: IL-18 polypeptide C145 (V11I, C38A, K53A, S55A, C76A, C127A) (ligand)
chain: B1 chain with K6E, V11I, C38A, C76A, C127A
On to B33, for which the “EC50, HEK-Blue IL18R reporter assay” value turned out to be 3.63 pM.

B34: IL-18 polypeptide C147 (V11I, C38A, K53A, D54A, C76A, C127A) (ligand)
chain: B1 chain with K6E, V11I, C38A, D54A, A55S, C76A, C127A
Turning to B34, the “EC50, HEK-Blue IL18R reporter assay” value is 1 pM.

B35: IL-18 polypeptide of SEQ ID NO: 62 (E6K, C38A, K53A, C127A) (ligand)
chain: B1 chain with C38A, A55S, C127A
Turning to B35, the “EC50, HEK-Blue IL18R reporter assay” value was 0.17 pM.

B36: IL-18 polypeptide C174 (K8L, E6K, V11I, C38A, K53A, T63A, C76A, C127A) (ligand)
chain: B1 chain with K8L, V11I, C38A, A55S, T63A, C76A, C127A
As for B36, the “EC50, HEK-Blue IL18R reporter assay” value was 0.29 pM.

B37: IL-18 polypeptide C158 (V11I, C38A, K53A, C76A, G108A, C127A) (ligand)
chain: B1 chain with K6E, V11I, C38A, A55S, C76A, G108A, C127A
On to B37, for which the “EC50, HEK-Blue IL18R reporter assay” value was found to be 15.6 pM.

B38: IL-18 polypeptide C150 (V11I, T34A, C38A, K53A, C76A, C127A) (ligand)
chain: B1 chain with K6E, V11I, T34A, C38A, A55S, C76A, C127A
Take B38: the “EC50, HEK-Blue IL18R reporter assay” value stood at 0.7 pM.

Values taken from patent US20250186597A1 (BRIGHT PEAK THERAPEUTICS, published 2025).
